Measured values taken from the nanobody polyreactivity screen of Harvey et al. (2022).

Experiment: yeast display, Sf9 membrane polyspecificity reagent, FACS + sequencing; frameworks hold sequencing errors
Summary of the method: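 In a synthetic yeast display library (Saccharomyces cerevisiae BJ5465), nanobody expression was induced with galactose for 36–48 hours. FACS gates were set low and high (top ~1%) using anti-HA fluorescence for expression and streptavidin fluorescence for binding of the Sf9 membrane reagent. Each polyreactivity label is drawn from the gate of origin.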

Sequence	polyreactivity (PSR sort gate)
QVQLVESGGGLVQAGGSLRLSCAASGRIFSYYAMGWYRQAPGKERELVAAISYSRTYYADSVKGRFTISRDNAKNTVLLQMNSLKPEDTAVYYCNVKSKYRYGYWGQGTQVTVSS	high polyreactivity
QVQLVESGGGLVQAGGSLRLSCAASGRIFSYYAMGWYRQAPGKERELVAAITWSGGRTYYADSVKGRFTISRDNAKNTVYLQMNSLKPEDTAVYYCAAQGSRWWGFDYWGQGTQVTVSS	high polyreactivity
QVQLVESGGGLVQAGGSLRLSCAASGRIFSYYAMGWYRQAPGKERELVARITSRGASTYYADSVKGRFTISRDNAKNTVYLQMNSLKPEDTAVYYCATDRYRIYPDYDYWGQGTQVTVSS	high polyreactivity
QVQLVESGGGLVQAGGSLRLSCAASGRIFSYYAMGWYRQAPGKERELVATINSGGSTNYADSVKRRFTISRDNAKNTVYLQMNSLKPEDTAVYYCAASPVWWSDYWGQGTQVTVSS	low polyreactivity
QVQLVESGGGLVQAGGSLRLSCAASGRIFSYYAMLWYRQAPGKERELVATINSGGSTNYADSVKGRFTISRDNAKNTVYLQMNSLKPEDTAVYYCAASPVWWYDNWGQGTQVTVSS	low polyreactivity
QVQLVESGGGLVQAGGSLRLSCAASGRIFSYYDMGWYRQAPGKERELVARISYSGDSTYYADSVKGRFTISRDNAKNTVYLQMNSLKPEDTAVYYCAADSITSKNQGLDYDYWGQGTQVTVSS	low polyreactivity
QVQLVESGGGLVQAGGSLRLSCAASGRIFSYYDMGWYRQAPGKERELVAVISSRGGSTFYADSVKGRFTISRDNAKNTVYLLMNSLKAEDTAVYDCASRSLYVGYDYWGQCTQVTVSS	high polyreactivity
QVQLVESGGGLVQAGGSLRLSCAASGRIFSYYTMGWYRQAPGKERELVAAISYRGGSTYADSVKGRFTISRDNAKNTVYLQMNSLKPEDTAVYYCAADDLSYVGYYYGYVDDDYWGQGTQVTVSS	high polyreactivity
QVQLVESGGGLVQAGGSLRLSCAASGRIFTANAMGWYRQAPGKERELVAAITTSDGTYYADSVKGRFTISRDNAKNTVYLQMNSLKPEDTAVYYCATDTATYPTAMDYWGQGTQVTVSS	low polyreactivity
QVQLVESGGGLVQAGGSLRLSCAASGRIFTAYAMGWYRQAPGKERELVARISKRGGSTYYADSVKGRFTISRDNAKNTVYLQMNSLKPEDTAVYYCAKSSWTFGAYNYWGQGTQVTVSS	high polyreactivity
QVQLVESGGGLVQAGGSLRLSCAASGRIFTAYYAMGWYRQAPGKERELVASISSSGTSTYADSVKGRFTISRDNAKNTVYLQMNSLKPEDTAVYYCATRKLRTRRYDYGYWGQGTQVTVSS	low polyreactivity
QVQLVESGGGLVQAGGSLRLSCAASGRIFTDYAMGWYRQAPGKEREFVAAINKSGGSTYYADSVKGRFTISRDNAKNTVYLQMNSLKPEDTAVYYCAKPHVIYPSYDYWGQGTQVTVSS	low polyreactivity
QVQLVESGGGLVQAGGSLRLSCAASGRIFTDYAMGWYRQAPGKERELVAAINFSGGSTYYADSVKGRFTISRDNAKNTVYLQMHSLKPEDTAVYYCAAQGYYDDMYYWGQGTQVTESS	high polyreactivity
QVQLVESGGGLVQAGGSLRLSCAASGRIFTDYAMGWYRQAPGKERELVASITERGGSTDYADSVKGRFTISRDNAKITVYLQMNSLKPEDTAVYYCNARDVTLWEDVYQQDGSGSWGLGTQVTVSS	low polyreactivity
QVQLVESGGGLVQAGGSLRLSCAASGRIFTGNALGWYRPAPGKERELVAVINRTGGSTYYADSVKGRFTISRDNAKNTVYLQMNSLKPEETAVYSCAAYVPWGWRYGYNYWGQGTQVTVSS	high polyreactivity
QVQLVESGGGLVQAGGSLRLSCAASGRIFTGNAMGWYRQAPGKERELVAAISASGGRTYYAYSVKGRFTISRDHAKNTVYLQMNSLKPEDTAVYYCAKVGRTAYTSTYTGVSAYDYWGQGTQVTVSS	high polyreactivity
QVQLVESGGGLVQAGGSLRLSCAASGRIFTGNAMGWYRQAPGKERELVAAITFSGGSTYYADSVKGRFTISRDNAKNTVYLQMNSLKPEDTAVYYCATRSAWYGNWYYYWGQGTQVTVSS	high polyreactivity
QVQLVESGGGLVQAGGSLRLSCAASGRIFTGNAMGWYRQAPGKERELVATISTGGSTNYADSVKGRFTISRDNAKNTVYLQMNSLKPEDTAVYYCAADTYYGYIIHVEYWGQGTQVTVSS	low polyreactivity
QVQLVESGGGLVQAGGSLRLSCAASGRIFTGNAMGWYRQAPGKERELVATITRRGGSTYYADSVKGRFTISRDHAKNTVYLQMNSLKPEDTAVYYCDANRLFSYDKYGYWGQGTQVTVSS	high polyreactivity
QVQLVESGGGLVQAGGSLRLSCAASGRIFTGNAMGWYRQAPGKEREWVATITRRGGSTYYADSVKGRFTISRDNAKNTVYLQMNSLKPEDTSVYYCAANRMFSNDKYGYWGQGTQVTVSS	high polyreactivity
QVQLVESGGGLVQAGGSLRLSCAASGRIFTGNAMGWYRQAPGKESQLVAAITRNGGSTYYADSVKGRFTISRDNEKYTVYLQMNRLKPEDTAVYYCNARYSTTYYGTIYRGMDYWGQGSQVTVSS	high polyreactivity
QVQLVESGGGLVQAGGSLRLSCAASGRIFTGNVMGWYRQAPGKERELVAAISYGGGSTNYADSVKGRFTISRDNAKNTVYLQMNSLKPEDTAVYYCAACIKRYLSYYTRYGYWGQGTQVTVSS	high polyreactivity

Sequence	polyreactivity (PSR sort gate)
QVQLVESGGGLVQAGGSLRLSCAASGRIFTGYAMGWNRQAPGKERELVAAISRGGSTNYADSVKGRFTISRDNAKNSVYLQMNSLKPEDTAVYYCAAGVHWDRGDYWGQGTQVTVSS	low polyreactivity
QVQLVESGGGLVQAGGSLRLSCAASGRIFTGYAMGWYRQAPGKEREFVAAITGRGGSTYYADSVKGRFTISRDNAKNTVYLQMNSLKPEDTAVYYCNALPRSPWYYRGDYWGQGTQVTVSS	high polyreactivity
QVQLVESGGGLVQAGGSLRLSCAASGRIFTHNTMGWYRQAPGKERELVATIDSGGSTNYADSVNGRFTISRDNAKNTVNLQMNSLQPEDTAVYYCAARVRPWRYLMGYWGQGTQVTVSS	low polyreactivity
QVQLVESGGGLVQAGGSLRLSCAASGRIFTINAMGWYRQAPGKDRELVAAITGSAASTYYADSVKGRFTISRDNAKNTVYLQMYSLKPEDTAVYYSNARPAGRGYNYWGQGTQVTVSS	high polyreactivity
QVQLVESGGGLVQAGGSLRLSCAASGRIFTIYAMGWYRQAPGKERELVAAISDRGTRTYYADSVKGRFTISRDNAKNTVYLQMISLKPEVTAVYYCATDALYTYGYDYWGQGTQVTVSS	low polyreactivity
QVQLVESGGGLVQAGGSLRLSCAASGRIFTIYAMGWYRQAPGKERELVAAISGGGGITNYADSVKGRFTISRDNAKNTVYLQMNSLKPEDTAVYYCAATPRAPRTISLYNYWGQGTQVTVSS	high polyreactivity
QVQLVESGGGLVQAGGSLRLSCAASGRIFTIYAMGWYRQEPGKERELVAAITRGGNTNYADSVKGRFTISRDNAKNTVYLLMNSLKPEDTAVYYCAARANVYTKKRDYWGQGTQVTVSS	high polyreactivity
QVQLVESGGGLVQAGGSLRLSCAASGRIFTKYAMGWYRQAPGKERELVAAISRGGSNTYYADSVKGRFTISRDIAKNTVYLQMNSLKPEDTAVYYCNKPYSYVGWPGTGPDPKTVYYWGQGTQVTVSS	high polyreactivity
QVQLVESGGGLVQAGGSLRLSCAASGRIFTKYAMGWYRQAPGKERELVAAISWSGGRTYYADSVKGRFTISRDNAKNTVYLQMNSLKPEDTAVYYCAAESYKTATLGEDYWGQGTQVTVSS	high polyreactivity
QVQLVESGGGLVQAGGSLRLSCAASGRIFTNAMGWYTQAPGKQRELVAAISGGSNTYYADSVKGRFTISRDNANNTVYLQMNSLKPEDTAVYYCNTDDQWWDGGYDYWGQGTQVTVSS	low polyreactivity
QVQLVESGGGLVQAGGSLRLSCAASGRIFTPYAMGWYRQAPGKEREFVATISFRGDSTYYADSVKGRFTISRDNAKNTVYLQMNSLKPEDTAVYYCNAATNRRTSDYWGQGTQVTVSS	high polyreactivity
QVQLVESGGGLVQAGGSLRLSCAASGRIFTQYTMGWYRQAPGKERELVAAINYSGGRTNYADSVKGRFTISRDIAKNTVYLQMNSLKPEDTAVYYCAAGYRRATYGYWGQGTQVTVSS	high polyreactivity
QVQLVESGGGLVQAGGSLRLSCAASGRIFTRNAMGWYRQAPGKERELVAAIRWSGDSTYYADSVKGRFTISRDNAKNTVYLQMNSLKPEDTAVYYCAADRQRSHRVGTKGHRVGYWGQGTQVTVSS	high polyreactivity
QVQLVESGGGLVQAGGSLRLSCAASGRIFTRNTMGWYRQAPGKERELVAAISSGASTYYADSVKGRFTISRDTAKNTVYLQMNSLKPEDTAVYYCATRGYARYWGLGTQVTVSS	low polyreactivity
QVQLVESGGGLVQAGGSLRLSCAASGRIFTRYAMGSYRQAPGKETEFVAAISGNGGSTYADSVKGRFTISRDNAKNTVYLQMNSLKPEDTAVYYCAAVPYGYGLASDSIFDYWGQGTQVTVSS	high polyreactivity
QVQLVESGGGLVQAGGSLRLSCAASGRIFTRYAMGWYRQAPGKERELVAAITSGGSTYYADSVKGRFSISRDNAKNTVYLQMNSLKPEDTAVYYCAAVVISSGVRYDYWGQGTQVTVSS	high polyreactivity
QVQLVESGGGLVQAGGSLRLSCAASGRIFTRYGMGWYRQAPGKEREFVAGISWSGGSTFYADSVKGRFTISRDNAKNTVYLQMHSLKPEDTAVYYCAARLYLRRPYEYWGQGTQVTVSS	high polyreactivity
QVQLVESGGGLVQAGGSLRLSCAASGRIFTRYTMGWYRQAPGKERELVASITSSGSSTYYADSVKGRFTISRDNAKNTVYLQMNSLKPEDTAVYYCAARSRLRYLYDYWGQGTQVTVSS	high polyreactivity
QVQLVESGGGLVQAGGSLRLSCAASGRIFTSNTMGWYRQAPGKESELVAAITCSGGSMYYADSVKGRFTISRDNAKNTVYLQMNSLKPEDTEVYDCAADTLGYHYWYDYWGQGTQVTVSS	low polyreactivity
QVQLVESGGGLVQAGGSLRLSCAASGRIFTSYAMGWYRQAPGKERELVAAINRGGSTYYADSVKGRFTISRDNAKNTVYLQMNSLKPEDTAVYYCNATPPYNPEFDYWGQGTQVTVSS	low polyreactivity
QVQLVESGGGLVQAGGSLRLSCAASGRIFTSYAMGWYRQAPGKERELVATITGSTASTYYADSVKGRFTISRDNAKNTVYLQMNSLKPEDTAVYYCAARSYSTYFRYYYWGQGTQVTVSS	high polyreactivity
